{"source": "paper PMC1181240", "binders": {"B1": {"name": "16mer d(CTTAATTCGAATTAAG)2 (dsDNA)", "DNA 1": "CTTAATTCGAATTAAG", "DNA 2": "CTTAATTCGAATTAAG"}}, "molecular_target": "MMLV RT N-terminal fragment (fingers/palm catalytic fragment) (Moloney murine leukemia virus, UniProt P03355 683-937)", "sequence (P03355 683-937)": "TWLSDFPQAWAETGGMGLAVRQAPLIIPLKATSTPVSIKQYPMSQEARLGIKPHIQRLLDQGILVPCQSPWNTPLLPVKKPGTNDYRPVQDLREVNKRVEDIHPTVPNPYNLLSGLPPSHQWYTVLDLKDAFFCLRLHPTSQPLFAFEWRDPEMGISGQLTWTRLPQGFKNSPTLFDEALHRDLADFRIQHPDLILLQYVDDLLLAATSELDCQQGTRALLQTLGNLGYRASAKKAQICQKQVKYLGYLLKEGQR", "assay": "X-ray crystallography"}
{"binder": "B1", "values": [{"measurement": "binding result", "result": "binds"}]}
